Experimental data as given in patent US20220227882A1 (TRUSTEES OF TUFTS COLLEGE, published 2022).

T1: Recombinant human ADAM12 (Acro Biosystems, AD2-H5228) (human, UniProt O43184 208-708)
T1 sequence (looked up): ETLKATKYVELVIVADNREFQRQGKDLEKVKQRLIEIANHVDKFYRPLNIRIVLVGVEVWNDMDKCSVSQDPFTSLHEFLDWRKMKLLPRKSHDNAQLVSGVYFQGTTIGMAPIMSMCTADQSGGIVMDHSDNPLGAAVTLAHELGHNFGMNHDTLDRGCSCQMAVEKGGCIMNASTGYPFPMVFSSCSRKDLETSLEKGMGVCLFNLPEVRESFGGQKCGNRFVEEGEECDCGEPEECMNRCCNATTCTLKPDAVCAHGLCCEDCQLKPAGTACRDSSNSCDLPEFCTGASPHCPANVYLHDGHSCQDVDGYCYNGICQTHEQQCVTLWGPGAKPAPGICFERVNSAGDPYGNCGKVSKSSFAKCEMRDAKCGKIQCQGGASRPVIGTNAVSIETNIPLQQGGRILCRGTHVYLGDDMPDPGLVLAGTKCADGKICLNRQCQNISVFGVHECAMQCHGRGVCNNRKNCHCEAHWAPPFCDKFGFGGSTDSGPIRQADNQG

T2: E444A (Homo sapiens, UniProt P78325)
T2 construct: expressed on HEK293 cells; also called human ADAM8 point mutant E444A
T2 sequence (ADAM8, looked up): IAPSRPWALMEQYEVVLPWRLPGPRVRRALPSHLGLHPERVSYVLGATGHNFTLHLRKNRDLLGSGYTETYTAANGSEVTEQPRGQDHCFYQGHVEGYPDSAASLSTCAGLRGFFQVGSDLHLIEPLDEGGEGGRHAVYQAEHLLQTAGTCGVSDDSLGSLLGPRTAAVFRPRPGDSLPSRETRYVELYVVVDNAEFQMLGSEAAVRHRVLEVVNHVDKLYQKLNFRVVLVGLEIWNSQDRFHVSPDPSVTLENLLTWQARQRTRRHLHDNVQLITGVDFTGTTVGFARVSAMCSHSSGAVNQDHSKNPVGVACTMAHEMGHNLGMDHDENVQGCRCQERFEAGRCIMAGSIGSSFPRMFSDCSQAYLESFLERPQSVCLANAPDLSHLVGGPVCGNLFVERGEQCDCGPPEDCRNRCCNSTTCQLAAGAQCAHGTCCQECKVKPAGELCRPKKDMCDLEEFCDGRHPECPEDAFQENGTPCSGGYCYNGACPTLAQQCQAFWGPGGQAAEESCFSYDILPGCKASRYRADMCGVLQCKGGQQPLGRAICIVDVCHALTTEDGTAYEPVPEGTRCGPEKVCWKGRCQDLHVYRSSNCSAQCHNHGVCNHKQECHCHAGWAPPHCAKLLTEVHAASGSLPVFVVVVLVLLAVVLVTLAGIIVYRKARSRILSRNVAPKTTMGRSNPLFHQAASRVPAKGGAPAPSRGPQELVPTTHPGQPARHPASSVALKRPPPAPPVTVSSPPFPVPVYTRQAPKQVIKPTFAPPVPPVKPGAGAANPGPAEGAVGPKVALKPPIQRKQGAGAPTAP


Experiments:
[1] = target: T1, Recombinant human ADAM12 (Acro …); assay: ELISA, recombinant ADAM12
Description: ELISA assays were also used to test hybridoma clones, subclones and purified ADP antibodies for specificity of ADAM8 binding, i.e., binding to rHuADAM8 (Acro Biosystems, AD8-H5223) was compared to binding to closely related recombinant human ADAM proteins: […], ADAM12 (Acro Biosystems, AD2-H5228) and ADAM15 (Sino Biological, 10517-H08H). For analysis of clones and subclones, 50 μl of cell supernatants were used. A test bleed sample (1:1000) was used as a positive control. Hybridoma culture medium or a pre-bleed serum sample (1:1000) was used as a negative control. Purified mouse ADPs were assessed at 1 μg/ml vs normal mouse IgG and with a test bleed sample as a positive control. ADP binding was detected with a goat anti-mouse IgG (Fc specific)-peroxidase antibody (1:5000, Sigma-Aldrich, A0168).

E444A = target: T2, E444A; assay: high-throughput flow cytometry, HEK293 cells with mutant ADAM8, high stringency; range in parentheses
Description: A variety of experimental parameters were optimized for high-throughput flow cytometry including blocking buffer, and primary and secondary antibody concentrations, to identify the optimal conditions for screening. Through these studies ADP2 and ADP13 were determined to be high affinity binding antibodies.
Thus, for these studies antigen-binding fragments (Fabs) of ADP2 and ADP13, which bind with lower affinity than the full antibody, were generated. In addition, higher binding stringency conditions were tested, such as increased pH, salinity, and temperature, and/or increased washing, to weaken binding sufficiently to allow identification of critical binding residues in flow cytometry. The final experimental flow cytometry conditions were: primary antibody incubation with ADP2 Fab (0.50 μg/ml), ADP13 Fab (5.00 μg/ml) and Control Ab (0.16 μg/ml) for 60 minutes in flow cytometry buffer containing 10% goat serum in PBS (Ca²⁺ and Mg²⁺ free). […] Samples were washed three times after primary antibody incubation and twice after secondary antibody incubation with PBS (Ca²⁺ and Mg′ free). Next, HEK293 cells expressing WT or mutated ADAM8 proteins or EV DNA were incubated with ADP2 or ADP13 Fabs or Control Ab at their optimal concentrations. Fab binding was detected using Alexa Fluor 488-conjugated secondary antibodies and mean cellular fluorescence determined using the Intellicyt iQue flow cytometry platform. […] This counter-screen strategy facilitates the exclusion of mutants that are locally misfolded or that have an expression defect. Binding of each test Fab to each mutant clone in the alanine scanning library was determined, in duplicate, by high-throughput flow cytometry.

| Binder | binding result [1] | Binding Reactivity (% WT) (E444A) |
| --- | --- | --- |
| ADP3 (antibody, IgG1, V domains shown) VH: EVKLEESGGGLVQPGGSMKLSCAASGFTFSDAWMDWVRQSPEKGLEWVAEIRGKVNNLATYYVESVKGRFTISRDDSKSSVYLQMNSLRAEDTGIYYCLGRYDATYAMDYWGQGTSVTVSS VL: DVVMTQTPLSLPVSLGDQASISCRSSQSLVHSDGNTYLHWYLQKPGQSPKLLIYKLSNRFSGVPDRFSGSGSGTDFTLKISRVEAEDLGVYFCSQSTHVPWTFGGGTKLEIK | no binding (tested: 1 µg/ml) | – |
| ADP13 Fab (Fab, V domains shown) VH: EVQLQQSGPEMVKPGTSVKISCKASGYTFTDYYINWVKQSHGKSLEWIGDISPNIGGATYNPKFKGKAILTVDKSARTAYMELRSLTSEDSAVYCCTRGGSSYPYFYAMDYWGQGTSVTVSS VL: DIVMSQSPSSLAVSVGEKVTMSCKSSQSLLYSSNQKKYLAWYQQKPGQSPKLLIYWASTRESGVPDRFTGSGSGTDFTLTISSVKAEDLAVYYCQQFYSYPYTFGGGTKLEINR | – | 70.8 |
